Results taken from publication PMC3526665 (Protein and peptide letters, 2010).

Target: the molecule itself
Assay: SEC

B1: cytoplasmic domain of QseC (QseC-CD) (domain or fragment, E. coli)
chain: RERRFTSDAAHELRSPLTALKVQTEVAQLSDDDPQARKKALLQLHSGIDRATRLVDQLLTLSRLDSLDNLQDVAEIPLEDLLQSSVMDIYHTAQQAKIDVRLTLNAHSIKRTGQPLLLSLLVRNLLDNAVRYSPQGSVVDVTLNADNFIVRDNGPGVTPEALARIGERFYRPPGQTATGSGLGLSIVQRIAKLHGMNVEFGNAEQGGFEAKVSWLE
stoichiometry N: 2
